Consider one molecule from article PMC11274412, “Characterization of Receptor Binding Affinity for Vascular Endothelial Growth Factor with Interferometric Imaging Sensor” (Biosensors, 2024).

Assay [1] has as its target T1, Aflibercept (Eylea).
T1 chain: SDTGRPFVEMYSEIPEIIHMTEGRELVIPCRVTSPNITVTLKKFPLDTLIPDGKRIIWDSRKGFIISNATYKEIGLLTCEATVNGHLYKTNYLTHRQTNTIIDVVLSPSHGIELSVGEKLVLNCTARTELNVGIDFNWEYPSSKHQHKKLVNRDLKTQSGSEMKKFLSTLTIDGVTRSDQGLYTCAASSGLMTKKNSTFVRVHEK
In words: Interferometric Reflectance Imaging Sensor (IRIS); equilibrium IRIS signal on drug spots against VEGF concentration, fitted with the Langmuir isotherm. The note with it: both partners purified.

Assay [2] concerns the target T1, Aflibercept (Eylea). In words: Interferometric Reflectance Imaging Sensor (IRIS); equilibrium IRIS signal on drug spots against VEGF concentration, fitted with the Langmuir-Freundlich isotherm. To be noted: both partners purified.

B1: Recombinant human VEGF165 protein (ligand)
chain: APMAEGGGQNHHEVVKFMDVYQRSYCHPIETLVDIFQEYPDEIEYIFKPSCVPLMRCGGCCNDEGLECVPTEESNITMQIMRIKPHQGQHIGEMSFLQHNKCECRPKKDRARQENPCGPCSERRKHLFVQDPQTCKCSCKNTDSRCKARQLELNERTCRCDKPRR
modifications: disulfide-linked homodimer; N-glycosylated (HEK293 expressed); limits are the conventional mature VEGF165 (191-aa precursor minus 26-aa signal) / human IgG1 Fc (C-terminal, dimerizing …)
With B1, in the assay with Aflibercept (Eylea) [1], the Ka was found to be 1.05e+09 M⁻¹ and the affinity, expressed as Kd, was 17.5 nM. In the assay with Aflibercept (Eylea) [2], this molecule came in with a Ka of 1.5e+08 M⁻¹ and a Kd of 66 nM.
